From the DeepSol protein solubility set come the findings set out here.

The data set can be described thus: soluble on expression in E. coli; label from the status in PepcDB or PDB records.
Take “MGSDKIHHHHHHMVVKIGLLGFGTVASGVPFLLEENQEKIEKAAHDSIEVAKVLVKDEAEKDRLLAAGHDYHFVTNIDDILADEDIAIVVELMGRIEPAKTFITHALEAGKHIVTANKDLLAVHGSELRALAEEKGLALYYEAAVAGGIPILRTLVNSLAADKVTRILGVLNGTSNFMLTKMVDEGWTYEKALQTAQELGYAESDPTNDVEGIDAAYKAVILSQFAFGMTVDFEHVAHKGISNITPEDVAVAQELGYVIKLVGDIQETTSGIAAEVSPTFLPKNHPLASVNGVMNAVFVESIGIGQSMYYGPGAGQKPTATSVMADIIRIVRRLKDNTIGKAFNEYSRSLQLAAPSDVKSEYYFSIDAPDKNGKMLRLAEIFNSEEISFKQILQQAADGETARLVIVTHEMSKTQLENVTDKLSKETDFTVLNTFKVLGE”: the “soluble on expression in E. coli” value is reported as “not soluble”. In the case of “MSLAHVCSVILVRRSFDIHHEQQKISLHNESILLLDKNLADDFAFCSLDTRRLDIEELTVCHYLQNIRQLPRNLGLHSKDRLLINQSPPIQLVTAIFDSFNDPRVNSPILSKMLYLSCLSMFSHKKELIPLLFNSISTVSGKVERLISFDIAKRWYLRDIAERMYTSESLIKKKLQDENTCFSKILLASRMSMARRLLELRQIPLHTIAEKCGYSSTSYFINTFRQYYGVTPHQFSQHSPGTEGHHHHHH” it was “soluble”. Then “HPECKKSVEDVNNDLKKFVSINGKKTVTEFHRELGKIMWNNVGMARSEESCKEALKVIPQIREEFWKNVKVSGSGAEFNQQLENAGRVADFLEFAELMTLDALHRNESCGGHFRVEHQMPD”, with “not soluble”; and “MEKQPNKLIREKSPYLLQHAWNPVDWHPWGEEAFSRARETGRPIFLSSGYSTCHWCHVMEHESFENAETAALLNRHFVPVKLDREEHPDVDHLYMMFVQATTGRGGWPMSVWMTPDLKPFFGGSYFPATERWGMPSFRSVLEHLANLWEHDRPRLLASAGSIMDQLSGLTRP”, with “not soluble”. Then “MGSDKIHHHHHHMLEELSENVWIAEGTCVSFHGFHGFHGFHGFHGFHGFQYPTRSVVVRLKSGAMWVWSPVKFDQDLADEIESLGTITHLVSPNKIHHLFLADWSSHVPTAKIWGPRSTVNKRRDLVFQPALDHLPPRDWAEDFEQFHVKGSLAMDEILFLHKQSNTLILADFSEHFSDQFLQRHWQPWQRRIGQFWGITEGRGFAPLDWRLSFLNRSHLRTLKQQLLDRQVDHVVMAHGEIARTDGHRFLQRSLAWI”, with “not soluble”; and “SNAMKPDIYENNREGILCVYKNEKWLVCIKNWKPDNDIEGIAHLEIHHSTDEQFILSAGKAILITAEKENDKFNIELTLMEKGKVYNVPAECWFYSITQKDTKMMYVQDSNCSMDNSDFCDLSKEEIEYIQTNARKLFEK”, with “soluble”. “MKEVARVRNLNRIIMGKYEIEPWYFSPYPIELTDEDFIYIDDFTLQYFGSKKQYERYRKKCTLRHPPGNEIYRDDYVSFFEIDGRKQRTWCRNLCLLSKLFLDHKTLYYDVDPFLFYCMTRRDELGHHLVGYFSKEKESADGYNVASILTLPQYQRMGYGKLLIEFSYELSKKENKVGSPEKPLSDLGLLSYRAYWSDTLITLLVEHQKEITIDEISSMTSMTTTDILHTAKTLNILRYYKGQHIIFLNEDILDRYNRLKAKKRRTIDPNRLIWKPPV”: the “soluble on expression in E. coli” value is recorded as “soluble”.

Regarding “MGSDKIHHHHHHSDDDDEKMVNPVPQTTFTGENGLQLTYNGAPMPGKKVTFTPDATNAQKATLRLEGEFDLNGILGKAKSAAAREDVSMPTAPGVLPGSPVVTLPVDLTINGDQCSFAGTSETDYCTFSYKGEVSAGAMELALSEVKLKNAKLAGMTWKLKPYNQEVEEQDPVRLVWESEKGIPLFGSFEMPVESVLKIALRMPLIAVGAENKVSATDMLGTVLKDVTFMEDGNIVATYKDAANGGTEWTKSPVNLAQYVVENDNQIKVFLNPAAIIAAVNNAGRAIDVQTVIQQAIQILYPMLVNGVPVAFEQTEDALSVYLNTELLLPLLKTLVVPLLSDEEVVAMLVELMKKDPDFGEMAGLAEPMLKAFPEIIESTTKVEIGLNFVK”, the “soluble on expression in E. coli” value was “not soluble”. In the case of “AEFFPEIPKVQFEGKESTNPLAFKFYDPEEIIDGKPLKDHLKFSVAFWHTFVNEGRDPFGDPTADRPWNRYTDPMDKAFARVDALFEFCEKLNIEYFCFHDRDIAPEGKTLRETNKILDKVVERIKERMKDSNVKLLWGTANLFSHPRYMHGAATTCSADVFAYAAAQVKKALEITKELGGEGYVFWGGREGYETLLNTDLGFELENLARFLRMAVDYAKRIGFTGQFLIEPKPKEPTKHQYDFDVATAYAFLKSHGLDEYFKFNIEANHATLAGHTFQHELRMARILGKLGSIDANQGDLLLGWDTDQFPTNVYDTTLAMYEVIKAGGFTKGGLNFDAKVRRASYKVEDLFIGHIAGMDTFALGFKVAYKLVKDGVLDKFIEEKYRSFREGIGRDIVEGKVDFEKLEEYIIDKETIELPSGKQEYLESLINSYIVKTILELR” it was “soluble”. In the case of “MSLGSGVAEPEFPVHGDDRAAAFFDLDNTVMQGAAIFHFGRGLYKRKFFETRDLARFAWQQAWFRLAGFEDPEHMQDARDSALSIVKGHRVSELKSIGEEIYDEYMAERIWPGTRALAQAHLDAGQKVWLVTAAPVEIAQVIARRLGLTGALGTVAESIGGVYTGKLVGEPLHGPAKAEAVRALATAEALDLSRCAAYGDSHNDIPMLSLVGHPYAINPDSKLRKHARELEWRLRDYRTGRKAAKEGHHHHHH” it was “soluble”.

Regarding “MHHHHHHMKEIATEYSFIKYTELELDDNGSIKQLSIPNKYNVIYAIAINDELVYIGKTKNLRKRINYYRTAINRKDKTSDSTKSALIHSALKEGSKVEFYARQCFNLSMTNELGTMTIATIDLEAPLFIKLFNPPWNIQHKKK”, the “soluble on expression in E. coli” value is recorded as “soluble”. With “MGSDKIHHHHHHMSSVGDFEEIILHDLKPYYHVPGAIHSEGITFVKETGTLLWVDIFKGEVHKVEDIEQPESSHSFFSISRANYGKNASIEYPPNPDELKESVGCIFPILDGASQNEIKQVLFGSKFGIGKLDFSKSEWEYVILYSECPELSTDRAYKLRSNDGNVSPDGKYIYVGLMSDFPFDLEPIGCLLRVDLLAHKIELVWNCLLIPNAIHWDESDQKTMYVTDSLNFTIWKCPGGDLLKRDELIDVKNSNNQSFESPEPDGSAIWFSKDGKHSGFLFITVWSTSKVQMFDLTNGKLLKEFILPEQTPRVSCCCFVGKDLFVTTANAEINDAVRTNTDKNGGCIYKIPNVLDGNVPLESTKRQPLH”, the “soluble on expression in E. coli” value was “not soluble”. For the sequence “MAFPRRLLSLSLRVKDLEAALFFYRDLLGLKVEADPPRYRLFPEGRGFLLELLHDPEAPLRPYPSLGLYHFALLLPHRKALAGVFRRLLEAGAHFEGAADHGVSEALYFRDPEGNGLELYRDRPKEAWPKGPLMFTAPLNLEKLLAENPDPTPLPPETLLGHLHLHVEDLAAAEAFFNGKLGMEVTLRTYPGALFFAWDGYHHHVGANTWAGRRKAPPGATGLLGYTLLAPPGVPPGEHPDPTGALARVLTEPPPSP”, the “soluble on expression in E. coli” value is recorded as “soluble”. On to “MSAEASGPAAAAAPSLEAPKPSGLEPGPAAYGLKPLTPNSKYVKLNVGGSLHYTTLRTLTGQDTMLKAMFSGRVEVLTDAGGWVLIDRSGRHFGTILNYLRDGSVPLPESTRELGELLGEARYYLVQGLIEDCQLALQQKRETLSPLCLIPMVTSPREEQQLLASTSKPVVKLLHNRSNNKYSYTSTSDDNLLKNIELFDKLALRFHGRLLFLKDVLGDEICCWSFYGQGRKIAEVCCTSIVYATEKKQTKVEFPEARIFEETLNILIYETPRGPDPALLEATGGAAGAGGAGRGEDEENREHRVRRIHVRRHITHDERPHGQQIVFKDLEHHHHHH”, for which the “soluble on expression in E. coli” value was “not soluble”.

For the sequence “MSLRFIDKLYQANLGKLTAGISPAALGTAYYSWFAQLLQSPGSMLRLAYYPLLHANDYLSNLFKYDKPRDGKDVRFHTENWSYYPWRLWAEQFLQFEDWCLQASSKVPGIPLHVKRTVTFSTRQILDALSPSNFVLTNPDLLQETIRSNGQNLIRGTELAFQDFVEKITGSPPAGVENFIPGKQVAVTEGKVVYSNHLIELIQYTPQTEKVYKEGHHHHHH”, the “soluble on expression in E. coli” value is on record as “soluble”. Then “GMTTQTATDFMEIVKGRRSIRNYDTNVKISKEEMTQILEEATLAPSSVNMQPWRFLVIDSEEGKATLAPLAKFNQVQVETSSAVIAVFGDMKAIDQLENIYDTAVEKGLMPQEVRDRQVPAIQGMYENVPASALKDSILIDSGLVSMQLMLVARAHGYDTNPIGGYEKDQIAEAFGMEKDRYVPVMLLSIGKAVDAGYPSVRLPINDIADWK”, with “soluble”; and “MSLDDGTGLFTIGQLARRTGLSVRTIRYWSDEGALPPVTRSSGGYRLYDAGSVARLELIRTLRELGLGLDDVREVLAGETTVAEVAATHVTALDAQIRALKVTRAVLSTVARRGSTAEEMTLMNKLARLSAAERRRILEEFADEMFRGLDTADPVIRERMRNTAVDLPDEPTPEQVDAWVELVELLQDPEFRAQMRAAAEFNAADRGHDSPAGASLWFVRRLVQLAADARQRGEGHHHHHH”, with “not soluble”; and “EILAKDQEAFMQSAKFLKEGKILAIKGIGGFHLMCDAFNEEALKTLRLRKNRPKKPFALMCKDLQSAKELAFIDEKEEALLGGVLAPIVILKAKKAFSLIAPDVDKIGIMLAYTPLHLLLFEYFKGSLVATSANLSGESIIKDEFNLCKKLDKVFDFYLDYDREIINASDDSIAQVVNGETMFLRTSR”, with “not soluble”. For the sequence “MNINKKVTLQRIQTLTELHGAPGFEEEVKNYMTQQMAPYVDEFIENRMGGFFGVKKSKNPNAKRVMIAAHMDEIGFMITNITKNGMIQFTNLGGVANDIWQGQRLVIKNRNGDKIIGVVSNIPKHFRTGSEGAPEIKDLTLDIGAQNEDEVRERGIDIGDTIVPHTPFTQLSEHRYSAKAWDNRYGCVLAIEILELLKDIELDVDLYVGANVQEEVGLRGAKASAEMIDPDVAFVVDCSPANDVKGNQPLSGELGKGTLIRIKDGTMILKPVFRDYLLKLVEAHDIEHQYYMSPGGTDGGEIHKANIGIPTAVIGVCARYIHSTDSVFDIRDYFAARSLLSEAICNLDNNQIETLQYK”, the “soluble on expression in E. coli” value is “not soluble”.

For “MGSDKIHHHHHHLGESGKNFDHRRGWVESRLFELEAVFAIDVAAFAVMSNHLHVVLRIDIETANCWTDREVLEQWHKLFNGDEITQKFVKGEVVETHEVLRLKHSIATYRSRLCDISWFMRCLNEPIARQANQEDSCTGRFWEGRFKSQALLDEAAVLACMAYVDLNPIRAKMASTPEQSDHTSIQLRIQAALRGEQPISLLPFIGNERKNQPKGIAFSLQDYLELVDDTGRIIRNDKHGAISTNSAKLLTRLNIFQENWLKLTTEFGKLFHGPVGTLQELTSYCEHLEKRRRHFASCCQHLMAS”, the “soluble on expression in E. coli” value is recorded as “not soluble”. For “MKKSLKQKIVSSLLAVSLAVSLAPIGQANADSTSEIKQTSSITKQVDASRAIEHIRFLSETIGPRPGGTKSEEWASRYVGMQLKSMGYEVEYQPFQVPDQYVGFIESPLSTKRNWQTGAAPNALISTESVTAPLIFVQGGTKLEDIPNEVNGKIVLFERGTTVADYNKQVENAVSKGAKGVLLYSLIGGRGNYGQTFNPRLTKKQSIPVFGLAYAQGNAFKEEIAKKGTTILSLKARHESNLTSLNVIAKKKPKNSTGNEKAVVVSSHYDSVVGAPGANDNASGTGLVLELARAFQNVETDKEIRFIAFGSEETGLLGSDYYVNSLSPKERDRILGVFNADMVATNYDKAKNLYAMMPNGSPNLVTDAALQAGKQLNNDLVLQGKFGSSDHVPFAEVGIPAALFIWMGVDSWNPLIYHIEKVYHTPQDNVFENISPERMKMALEVIGTGVYNTLQQSVTQTEQKAA”, the “soluble on expression in E. coli” value is listed as “not soluble”.
